Data as given in publication PMC4753514.

Columns and labels:
[1] = biological target: ProG-TGT (Protein G fragment, amino acids 190-384, conjugated to a double-stranded DNA tension gauge tether with biotin) (UniProt P19909); test: micro-ring resonator; 200 ug/ml neutravidin, 0.05 uM ProG-TGT and 50 ug/ml Ecad-Fc flowed successively over a polymer-passivated surface presenting biotin; ProG-TGT held through biotin:neutravidin; film thickness read out
[2] = biological target: Ecad-Fc (recombinant human epithelial cadherin fused with IgG-Fc)

Substance “Ecad-Fc (recombinant human epithelial cadherin fused with IgG-Fc) (Fc fusion)” has a film thickness increase [1] of 237 pm and a stoichiometry N (Ecad-Fc per ProG-TGT (molar ratio)) [1] of 0.87.

In the case of “E-cadherin on DLD-1 cells (from UniProt P12830 155-882) (receptor)”, the surface density of adhered DLD-1 cells on the ProG-TGT (43 pN) surface with Ecad-Fc (control surface without Ecad-Fc: 8/mm^2) [2] is reported as 386 /mm^2.
